One data set addresses T1, Human EphA2 (Homo sapiens, UniProt P29317).
T1 construct: purchased Sino Biological 13926-H08HD
Kind of data set: Binding capacity test to EphA2 protein (SPR, Biacore 8K). (SPR reads the build-up and loss of mass on a sensor chip optically.)

The next data set in a line: Stability in whole blood. In kind it is in vitro ADME, Cynomolgus macaques. The following applies: Cynomolgus macaque whole blood, 2 μM, 37° C. Here is the method:
To test the stability of the compounds of the present invention in whole blood from SD rats and Cynomolgus macaques.
The corresponding incubation plates, including T0, T10, T30, T60, T120, and T240 incubation plates, were added with a 2 μL working solution of the compound to be tested (100 μM). Three parallel wells were prepared for each sample. Then, 98 μL of blank whole blood from SD rats and Cynomolgus macaques was added to the corresponding incubation plates to which the working solution had been added. All samples were incubated in a 37° C. water bath. […] At the end of each incubation time point, the corresponding incubation plate was removed, added with stop buffer, precipitated, and centrifuged for 20 minutes. Then, 100 μL of the supernatant was diluted with 300 μL of ultrapure water, mixed uniformly, and then analyzed by the LC-MS/MS method. The concentration of the compound to be tested in the sample was semi-quantitatively determined by the liquid chromatography-tandem mass spectrometry (LC-MS/MS) method.

Data set [1] is described as follows: Metabolic stability in hepatocytes. The format is in vitro ADME, Humans. The note with it: human hepatocytes, 1 μM, 0.5×10^6 cells/mL. Here is the method:
To investigate the metabolic stability of the compounds of the present invention in hepatocytes from Cynomolgus macaques and humans.
Incubations were performed in 96-well plates using an external extraction method. Several 96-well sample precipitation plates, designated T0, T15, T30, T60, T90, T0-MC, T90-MC, and blank matrix, were prepared, respectively. The recovery culture medium and incubation culture medium were removed in advance and placed in a 37° C. water bath for preheating. Frozen hepatocytes from Cynomolgus macaques and humans were removed from a liquid nitrogen tank, recovered, and diluted to 0.51×10^6 cells/mL with the incubation culture medium. […]
At the end of the incubation at the corresponding time point, the incubation plates were removed, from which 25 μL of a compound mixture with the cells was removed and added to sample plates containing 125 μL of stop buffer. […] All samples were mixed uniformly and then analyzed by the LC-MS/MS method.
The concentration of the compound of the present invention in the sample was semi-quantitatively determined by the liquid chromatography-tandem mass spectrometry (LC-MS/MS) method without a standard curve and quality control sample. […]

Usually Kd stands for a measure of binding affinity in units of concentration. As usually defined, the half-life is the time in which the quantity being followed falls by half. Low values mean rapid decline, high ones slow decline.

Where a name gives a salt, the structure may show the parent alone. Starred links: 1 amine or outer side, 2 acyl side, 3 side chain; linkers in the order of their positions; H or OH if unused. Positions of bridges follow the written chain, without caps; N, C: chain ends. Non-standard residues stand in square brackets, D forms with d. Residues, ends and D or L forms follow the SMILES beside them. Chains are numbered I, II in the order given. *: point of attachment. TATA = O=C(CC[*:1])N1CN(C(=O)CC[*:2])CN(C(=O)CC[*:3])C1; Dolaproine = CO[C@@H]([C@@H]1CCCN1)[C@@H](C)C(=O)O; Dil = CC[C@H](C)[C@H](NC)[C@@H](CC(=O)O)OC; X2 = O=C(CCCC(=O)[*:2])NCCC(=O)[*:1]; PABC = O=C(OCc1ccc(N[*:1])cc1)[*:2]; X1 = C[C@@H](N*)[C@@H](O)c1ccccc1; Hyp = O=C(O)[C@@H]1C[C@@H](O)CN1; hArg = N=C(N)NCCCC[C@H](N)C(=O)O; Cit = NC(=O)NCCC[C@H](N)C(=O)O; Pen = CC(C)(S)[C@H](N)C(=O)O; NMeV = CN[C@H](C(=O)O)C(C)C; Sar = CNCC(=O)O

T1 sequence (P29317 24-534 limits assumed): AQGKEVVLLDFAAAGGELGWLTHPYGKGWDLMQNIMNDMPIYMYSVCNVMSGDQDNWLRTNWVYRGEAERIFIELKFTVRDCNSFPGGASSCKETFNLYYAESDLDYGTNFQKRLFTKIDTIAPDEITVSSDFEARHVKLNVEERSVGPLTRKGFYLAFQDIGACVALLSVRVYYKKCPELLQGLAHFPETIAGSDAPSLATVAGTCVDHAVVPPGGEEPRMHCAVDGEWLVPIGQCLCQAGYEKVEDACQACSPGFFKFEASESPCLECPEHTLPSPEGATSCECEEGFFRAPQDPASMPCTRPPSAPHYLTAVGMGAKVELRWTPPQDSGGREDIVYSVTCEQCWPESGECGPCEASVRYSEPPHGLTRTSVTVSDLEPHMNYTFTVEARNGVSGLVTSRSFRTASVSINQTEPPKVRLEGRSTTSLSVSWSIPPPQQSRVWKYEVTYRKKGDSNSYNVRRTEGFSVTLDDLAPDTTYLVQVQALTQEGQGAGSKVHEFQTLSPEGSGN

In the case of `CC[C@H](C)[C@@H]([C@@H](CC(=O)N1CCC[C@H]1[C@H](OC)[C@@H](C)C(=O)N[C@H](C)[C@@H](O)c1ccccc1)OC)N(C)C(=O)[C@@H](NC(=O)[C@H](C(C)C)N(C)C(=O)OCc1ccc(NC(=O)[C@H](CCCNC(N)=O)NC(=O)[C@@H](NC(=O)CCCC(=O)NCCC(=O)N(C)CC(=O)N(C)CC(=O)N(C)CC(=O)N(C)CC(=O)N(C)CC(=O)N(C)CC(=O)N(C)CC(=O)N(C)CC(=O)N(C)CC(=O)N(C)CC(=O)N[C@H]2CCCCNC(=O)C[C@@H](C(=O)N[C@H]3CSCCC(=O)N4CN5CN(C4)C(=O)CCSC(C)(C)[C@@H](C(N)=O)NC(=O)[C@H](CCCCNC(=N)N)NC(=O)[C@H](Cc4c[nH]c6ccccc46)NC(=O)[C@@H](CC(=O)O)NC(=O)[C@@H]4CCCN4C(=O)[C@H](Cc4c[nH]cn4)NC(=O)[C@H](CC(C)C)NC(=O)[C@H](CSCCC5=O)NC(=O)[C@H](CC(C)C)NC(=O)[C@@H]4CCCN4C(=O)[C@H](CC(N)=O)NC(=O)[C@H](C(C)C)NC(=O)[C@H](CC(C)C)NC(=O)[C@@H]4C[C@@H](O)CN4C3=O)NC(=O)[C@H](CCCCNC(=N)N)NC2=O)C(C)C)cc1)C(C)C` [Acetate salt of PDC_8] (I: [Sar][Sar][Sar][Sar][Sar][Sar][Sar][Sar][Sar][Sar]K[hArg]DC[Hyp]LVNPLCLHP[dD]W[hArg][Pen]-NH2 / II: V[Cit][PABC][NMeV]V[Dil][Dolaproine]-X1; lactam I:11-I:13; linker I:14-I:21-I:28 via TATA; linker I:N-II:N via X2), the dissociation constant Kd at Human EphA2 stood at 3.46 nM. Also, the results for the half-life (in “Stability in whole blood”; in data set [1]) were greater than 9.63 h and greater than 3.61 h, respectively. For the same compound, the CLint scaled in data set [1] (read-out: CLint (liver)) is less than 17.8 mL/min/kg.

The values are drawn from US20250121076A1, “POLYPEPTIDE DRUG CONJUGATE HAVING NOVEL STRUCTURE AND APPLICATION THEREOF” (MEDSHINE DISCOVERY INC., priority 2021, published 2025).
